Measurements published in US7026443.
Like-named read-outs stand apart in the source and are kept apart here.

Columns and labels:
HLA-A*1101 (human) [1] = target: HLA-A*1101 (human)
HLA-A*0301 (human) [2] = target: HLA-A*0301 (human)
HLA-A*1101 (human) [3] = target: HLA-A*1101 (human); remark: listed apart in the source
HLA-A*0301 (human) [4] = target: HLA-A*0301 (human); remark: listed apart in the source
[5] = remark: other sources report otherwise

LYNLLIRCL (modifications not checked) [HPV45 E6 98 peptide … (SEQ ID NO: 15730)]
relative binding ratio (IC50 of standard peptide / IC50 of test peptide) (HLA-A*2402 (human)): 0.0001

ALLRYKCGK (modifications not checked) [HPV45 E1 peptide … (position 270, 9 amino acids)]
relative binding ratio (IC50 of standard peptide / IC50 of test peptide) (HLA-A*1101 (human) [1]): 0.14 | relative binding ratio (IC50 of standard peptide / IC50 of test peptide) (HLA-A*0301 (human) [2]): 0.09 | relative binding ratio (IC50 of standard peptide / IC50 of test peptide) (HLA-A*1101 (human) [3]): 0.14

LIRCLRCQK (modifications not checked) [HPV45 E6 peptide … (position 102, 9 amino acids)]
binding affinity ratio (IC50 of standard peptide / IC50 of test peptide) (HLA-A*0301 (human) [4]): 0.019 | relative binding ratio (IC50 of standard peptide / IC50 of test peptide) (ratio to standard peptide) (HLA-A*1101 (human) [1]): 0.0012 | relative binding ratio (IC50 of standard peptide / IC50 of test peptide) (ratio to standard peptide) (HLA-A*0301 (human) [2]): 0.019 | relative binding ratio (IC50 of standard peptide / IC50 of test peptide) (ratio to standard peptide) (HLA-A*1101 (human) [3]): 0.0012

LYNLLIRCL (modifications not checked) [HPV18 E6 98-106 peptide …]
relative binding ratio (IC50 of standard peptide / IC50 of test peptide) (ratio to standard peptide) (HLA-A*2402 (human)): 0.0001

VYRDGNPY (modifications not checked) [HPV16 E6 60 VYRDGNPY]
relative binding ratio (IC50 of standard peptide / IC50 of test peptide) (HLA-A*2402 (human)): 0.0001

ATMCRHYKR (modifications not checked) [HPV16 E1 peptide … (position 406, 9 amino acids)]
relative binding ratio (IC50 of standard peptide / IC50 of test peptide) (ratio to standard peptide) (HLA-A*0301 (human) [4]): 0.066 | binding affinity ratio (IC50 of standard peptide / IC50 of test peptide) (HLA-A*1101 (human) [1]): 1.5 | binding affinity ratio (IC50 of standard peptide / IC50 of test peptide) (HLA-A*0301 (human) [2]): 0.066

FYSRIRELRHY (modifications not checked) [HPV18 E6 71-81 peptide …]
relative binding ratio (IC50 of standard peptide / IC50 of test peptide) (ratio to standard peptide) (HLA-A*2402 (human)): 0.0052

FYSRIREL (modifications not checked) [HPV18 E6 71-78 peptide FYSRIREL]
relative binding ratio (IC50 of standard peptide / IC50 of test peptide) (ratio to standard peptide) (HLA-A*2402 (human)): 0.026

SVAALYWYR (modifications not checked) [HPV45 E1 peptide … (position 308, 9 amino acids)]
relative binding ratio (IC50 of standard peptide / IC50 of test peptide) (HLA-A*1101 (human) [1]): 8.8 | relative binding ratio (IC50 of standard peptide / IC50 of test peptide) (HLA-A*0301 (human) [2]): 2.9

LLIRCLRCQK (modifications not checked) [HPV45 E6 peptide … (position 101, 10 amino acids)]
binding affinity ratio (IC50 of standard peptide / IC50 of test peptide) (HLA-A*0301 (human) [4]): 0.047 | relative binding ratio (IC50 of standard peptide / IC50 of test peptide) (ratio to standard peptide) (HLA-A*1101 (human) [1]): 0.12 | relative binding ratio (IC50 of standard peptide / IC50 of test peptide) (ratio to standard peptide) (HLA-A*0301 (human) [2]): 0.047 | relative binding ratio (IC50 of standard peptide / IC50 of test peptide) (ratio to standard peptide) (HLA-A*1101 (human) [3]): 0.12

SVAALYWYR (modifications not checked) [HPV18 E1 position 322 peptide …]
binding affinity ratio (IC50 of standard peptide / IC50 of test peptide) (HLA-A*1101 (human) [1]): 8.8 | binding affinity ratio (IC50 of standard peptide / IC50 of test peptide) (HLA-A*0301 (human) [2]): 2.9

KLPDLCTEL (modifications not checked) [HPV45 E6 13 peptide … (SEQ ID NO: 15726)]
relative binding ratio (IC50 of standard peptide / IC50 of test peptide) (HLA-A*2402 (human); [5]): 0.0013

ALFTAQEAK (modifications not checked) [HPV16 E1 peptide … (position 69, 9 amino acids)]
relative binding ratio (IC50 of standard peptide / IC50 of test peptide) (ratio to standard peptide) (HLA-A*0301 (human) [4]): 0.24 | binding affinity ratio (IC50 of standard peptide / IC50 of test peptide) (HLA-A*1101 (human) [1]): 0.4 | binding affinity ratio (IC50 of standard peptide / IC50 of test peptide) (HLA-A*0301 (human) [2]): 0.24

CIDFYSRIR (modifications not checked) [HPV45 E6 peptide … (position 68, 9 amino acids)]
binding affinity ratio (IC50 of standard peptide / IC50 of test peptide) (HLA-A*0301 (human) [4]): 0.001 | relative binding ratio (IC50 of standard peptide / IC50 of test peptide) (ratio to standard peptide) (HLA-A*1101 (human) [1]): 0.0001 | relative binding ratio (IC50 of standard peptide / IC50 of test peptide) (ratio to standard peptide) (HLA-A*0301 (human) [2]): 0.0001 | relative binding ratio (IC50 of standard peptide / IC50 of test peptide) (ratio to standard peptide) (HLA-A*1101 (human) [3]): 0.0001

FMSFLTALK (modifications not checked) [HPV16 E1 peptide … (position 453, 9 amino acids)]
binding affinity ratio relative to the standard peptide (IC50 standard / IC50 test) (HLA-A*0301 (human) [4]): 0.13 | binding affinity ratio (IC50 of standard peptide / IC50 of test peptide) (HLA-A*1101 (human) [1]): 0.21 | binding affinity ratio (IC50 of standard peptide / IC50 of test peptide) (HLA-A*0301 (human) [2]): 0.13

NSNAAAFLK (modifications not checked) [HPV33 E1 379 peptide … (SEQ ID NO: 10558)]
binding affinity ratio (IC50 of standard peptide / IC50 of test peptide) (ratio relative to standard peptide) (HLA-A*1101 (human) [1]): 0.37 | binding affinity ratio (IC50 of standard peptide / IC50 of test peptide) (ratio relative to standard peptide) (HLA-A*0301 (human) [2]): 0.0057

FYSRIREL (modifications not checked) [HPV45 E6 71 peptide FYSRIREL (SEQ ID NO: 15714)]
relative binding ratio (IC50 of standard peptide / IC50 of test peptide) (HLA-A*2402 (human)): 0.026

KLPDLCTEL (modifications not checked) [HPV18 E6 13-21 peptide …]
relative binding ratio (IC50 of standard peptide / IC50 of test peptide) (ratio to standard peptide) (HLA-A*2402 (human); [5]): 0.0013
